Results from the nanobody polyreactivity screen of Harvey et al. (2022).

Experiment: yeast display, Sf9 membrane polyspecificity reagent, FACS + sequencing; frameworks hold sequencing errors
Method in brief: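 Polyreactivity labels are assigned by the sorting gate from which each nanobody was recovered. The gates were low and high (top ~1%), set on anti-HA fluorescence for expression and streptavidin fluorescence for reagent binding. Before sorting, galactose-induced (36–48 hours) yeast display cells were stained for 1 hour at 4 °C with 10% biotinylated, detergent-solubilized Sf9 membrane reagent.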

## QVQLVESGGGLVQAGGSLRLSCAASGIIFGWYAMGWYRQAPGKEREFVATISWSGASTYYADSVKGRFTISRDNAKNTVYLQMNSLKPEDTAVYYCAAGGRRQAYGRRDYWGQGTQVTVSS
  polyreactivity (PSR sort gate): high polyreactivity

## QVQLVESGGGLVQAGGSLRLSCAASGIIFGYNAMGCYRQAPGKERELVASIDVSGGITYYADSVKGRFTISRDNAKNTVYLQMNSLKPEDTAVYYCAAYRYGSRYGYEYWGQGTQVTVSS
  polyreactivity (PSR sort gate): high polyreactivity

## QVQLVESGGGLVQAGGSLRLSCAASGIIFGYYAMGWSRKAPGKERELVAAISRGGNTNYADSVKGRFTISRDNAKNTVYLQMNSLKPEDTAVYYCAADFWSRIIYFYAVDVDYWGQGTQVTVSS
  polyreactivity (PSR sort gate): low polyreactivity

## QVQLVESGGGLVQAGGSLRLSCAASGIIFGYYAMGWSRQEPGKERELVAAINQDGSSTYYADSVKGRFTISRDNAKNTVYLQMNSLKPEVTAVYYCNARGVPRQDARMGYWGEGTQVTVSS
  polyreactivity (PSR sort gate): low polyreactivity

## QVQLVESGGGLVQAGGSLRLSCAASGIIFGYYAMGWYRQAPGKEREFVAAINYSGVSTYYADSVKGRFTISRDNAKNTVYLQMNSLKPEDTAVYSCAADFRIVVYGWGGSHMDYWGQGTQVTVSS
  polyreactivity (PSR sort gate): low polyreactivity

## QVQLVESGGGLVQAGGSLRLSCAASGIIFGYYTMGWYRQAPGKERELVARITTGSSTNYADSVKGRFTISRDNAKNTVYLQMNSLKPEDTAVYYCAAVPIAADKANGYDYWGQGTQVTVSS
  polyreactivity (PSR sort gate): low polyreactivity

## QVQLVESGGGLVQAGGSLRLSCAASGIIFHFNDMGWYRQAPGKERELVAAITSGGSTNYADSVKGRFTISRDNAKNTVYLQMNSLKPEDTAVYYCAARRGLRLFAYRHGYWGQGTQVTVSS
  polyreactivity (PSR sort gate): low polyreactivity

## QVQLVESGGGLVQAGGSLRLSCAASGIIFHFNDMGWYRQAPRKERELVAAIDSTGSTNYADSVKGRFTISRDNAKNTVYLQMNSLKPEDTAVYYCAVLNHRVDSVLTRYYYWGQGTQVTVSS
  polyreactivity (PSR sort gate): low polyreactivity

## QVQLVESGGGLVQAGGSLRLSCAASGIIFHPYAMGWYRQAPGKERELVAVITWPGDSTYYADSVKGRFTISRDNAKNTVYLQMNSLKPEDTAVYYCNVDAWGTSGELPYDYWGQGSQVTVSS
  polyreactivity (PSR sort gate): low polyreactivity

## QVQLVESGGGLVQAGGSLRLSCAASGIIFHRNDMGWYRQAPGKERELVANIRDGGITYADSVKGRFTISRDKAKNTVYLQMNSLKPEDTAVYYCARDDTSPGYGDQSSNAAYYYWGQGTQVTVSS
  polyreactivity (PSR sort gate): low polyreactivity

## QVQLVESGGGLVQAGGSLRLSCAASGIIFHYYAMGWYRQAPVKERELVAVITSGGSTNYADSVKGRFTISRDNAKNTVYLQMNSLKPEDTAVYYCAADPIRDSWWQYFQDGREYDYWGQGTQVTVSS
  polyreactivity (PSR sort gate): low polyreactivity

## QVQLVESGGGLVQAGGSLRLSCAASGIIFIGNAMGWYRQAPGKERELVAAISRRGGGTYYADSVKGRFTISRDNAKNTVYLQMNSLKPEDTAVYYCNAEITVNDDDYWGQGTQVTVSS
  polyreactivity (PSR sort gate): high polyreactivity

## QVQLVESGGGLVQAGGSLRLSCAASGIIFIGNAMGWYRQAPGKERELVAAISWNGVRTYYADSVKGRFTISRDNAKNTVYLQMNSLKPEYTAVYYCAAVTRRGIKLDYWGQGTQVTVSS
  polyreactivity (PSR sort gate): high polyreactivity

## QVQLVESGGGLVQAGGSLRLSCAASGIIFIHNAMGGYRQAPGTERELVAAINWSGGRTSYADSVKGRFTISRDNAKNTVYLQMTRLKPEDTAVYYCAADGRRYSGEYYYWGQGTQVTVSS
  polyreactivity (PSR sort gate): high polyreactivity

## QVQLVESGGGLVQAGGSLRLSCAASGIIFINYVKGWYRQAPGKESELVAAITGSGSSTYYADSVKGRFTISRDNAKNTVYLQMNSLKPEDTAVYYCAADNPRVRFLYYYWGQGTQVTVSS
  polyreactivity (PSR sort gate): high polyreactivity

## QVQLVESGGGLVQAGGSLRLSCAASGIIFIRYAMGWYRQAPGKERELVAAISWRGGSTYYADSVKGRFTISRDNAKNTVYFQMNSLKPEDTAVYYCAAGYFSYRRYDYWGEGTQVTVSS
  polyreactivity (PSR sort gate): high polyreactivity

## QVQLVESGGGLVQAGGSLRLSCAASGIIFIWNTMGWYRQAPGKEREFVAAISRSGSGTSYADSVKGRFTISRDNAKNTVYLQMNSLKPEDTAVYYWDARLEWPYDMYYWGQGTQVTVSS
  polyreactivity (PSR sort gate): low polyreactivity

## QVQLVESGGGLVQAGGSLRLSCAASGIIFIYYVMGWYRQAPGKERELVAAISRSGGSTYYADSVKGRFTISRDNAKNTVNLQMNSLKPEDTAVYYCAARRITSTDEYYWGQGTQVTVSS
  polyreactivity (PSR sort gate): high polyreactivity

## QVQLVESGGGLVQAGGSLRLSCAASGIIFKLYAMGWYRQAPGKEREFVATITKTCGRTYYADSVKGRFTISRDNAKNTVYLQMNSLKPEDTAVYYCAARRVNGKMYYWGQGTQVTVSS
  polyreactivity (PSR sort gate): high polyreactivity

## QVQLVESGGGLVQAGGSLRLSCAASGIIFKSYTMGWYRQAPGKERELVAAINSSGDRTYYADSVKGRFTISRDNAKNTVYLQMNSLKPEDTAVYYCAAAPVKKSRFRYDYWGQGTQVTVSS
  polyreactivity (PSR sort gate): high polyreactivity

## QVQLVESGGGLVQAGGSLRLSCAASGIIFKVNVMGWYRQAPGKERELVAAISWSGGSTYYADSVKGRFTISRDNAKNTFYLQMNILKPEDTAVYYCAAYSYVYGERYYFWGQGTQLTVSS
  polyreactivity (PSR sort gate): high polyreactivity

## QVQLVESGGGLVQAGGSLRLSCAASGIIFLRNTMGWNRQAPGKERELVASISRRGGSTYYADSVKGRFTISRDNAKNTVYFQLNSLNPEDTAVYYCAATVRGKRSTYDYWGQGTQVTVSS
  polyreactivity (PSR sort gate): high polyreactivity

## QVQLVESGGGLVQAGGSLRLSCAASGIIFLSYAIGWYRQAPGKERELFAAISSGVSTYSADSVKGRFTISRDNAKNPVYFQMNSLKPEDTAVYFCAAYYLWPGYQFRPYDYWGQGTQVTVSS
  polyreactivity (PSR sort gate): low polyreactivity

## QVQLVESGGGLVQAGGSLRLSCAASGIIFLSYAMGWYRQAPGKERELVAAIRSRGDSTYYADSVKGRFTISRDNAKNTVYLQMNSLKAEDTAVYYCNARQRRYPYGYWGQGTQVTVSS
  polyreactivity (PSR sort gate): high polyreactivity

## QVQLVESGGGLVQAGGSLRLSCAASGIIFLYYAMGWYRQAPGKERELVAAISRSGGRTFYADSVKGRFTISRDNAKNTVFLQMNSLKAEDTAVYYCAADALIYYKGSPDYYWGQGTQVTVSS
  polyreactivity (PSR sort gate): high polyreactivity

## QVQLVESGGGLVQAGGSLRLSCAASGIIFNSYAMGWYRQAPGKERELVAAISRSGTSTYYADSVKGRFTISRDNAKNTVYLQMNSLKPEDTAVYYCNVARGYYSYSSRIDYYWGQGTQVTVSS
  polyreactivity (PSR sort gate): high polyreactivity

## QVQLVESGGGLVQAGGSLRLSCAASGIIFNTYVMGWYRQAPGKERELVAAISRRGGSTYYADSVKGRFTISRDNAKNTVYLQMNSLKPEDTAVYYCAADVLYQQAGSYYWGQGTQVTVSS
  polyreactivity (PSR sort gate): high polyreactivity

## QVQLVESGGGLVQAGGSLRLSCAASGIIFNYYAMGWYRQAPGKERELVAAIRISDTTYYADSVKGRFTISRDNAKNTVYLQMNSLKPEDTAVYYCNTLYYYYYGEVYVRDYDYWGQGTQVTVSS
  polyreactivity (PSR sort gate): low polyreactivity

## QVQLVESGGGLVQAGGSLRLSCAASGIIFNYYTMGWYRQAPGKERELVAVISWRGGSTFYADSVKGRFTISRDNAKNTVYLQMNSLKPEDTAVYYCAAVLFGDYPPVYYPTEYDYWGQGTQVTVSS
  polyreactivity (PSR sort gate): low polyreactivity

## QVQLVESGGGLVQAGGSLRLSCAASGIIFPHYAMGWYRQEPGKERELVAAITRSGGSTYYADSVKGRFTISRDNAKNTVYLQMNSLKPEDTAVYYCAAKRPVQSGGYNYWGQGTQVTVSS
  polyreactivity (PSR sort gate): high polyreactivity

## QVQLVESGGGLVQAGGSLRLSCAASGIIFPLYMGWDRQAPGTERVLVAAINSIGGRTYYADSVKGRFTISRDNAKNTVYLQMNSLKPEDTAVYYCNAVPVGWRYRQYDYWGQGTQVTVSS
  polyreactivity (PSR sort gate): high polyreactivity
